Source: paper PMC5095074 (2016)

B1: GST-E-cadherin-cytoplasmic domain (cd) [human] / Purified β-catenin [not stated] (parent complex)
chain 1: RAVVKEPLLPPEDDTRDNVYYYDEEGGGEEDQDFDLSQLHRGLDARPEVTRNDVAPTLMSVPRYLPRPANPDEIGNFIDENLKAADTDPTAPPYDSLLVFDYEGSGSEAASLSSLNSSESDKDQDYDYLNEWGNRFKKLADMYGGGEDD
chain 2: MATQADLMELDMAMEPDRKAAVSHWQQQSYLDSGIHSGATTTAPSLSGKGNPEEEDVDTSQVLYEWEQGFSQSFTQEQVADIDGQYAMTRAQRVRAAMFPETLDEGMQIPSTQFDAAHPTNVQRLAEPSQMLKHAVVNLINYQDDAELATRAIPELTKLLNDEDQVVVNKAAVMVHQLSKKEASRHAIMRSPQMVSAIVRTMQNTNDVETARCTAGTLHNLSHHREGLLAIFKSGGIPALVKMLGSPVDSVLFYAITTLHNLLLHQEGAKMAVRLAGGLQKMVALLNKTNVKFLAITTDCLQILAYGNQESKLIILASGGPQALVNIMRTYTYEKLLWTTSRVLKVLSVCSSNKPAIVEAGGMQALGLHLTDPSQRLVQNCLWTLRNLSDAATKQEGMEGLLGTLVQLLGSDDINVVTCAAGILSNLTCNNYKNKMMVCQVGGIEALVRTVLRAGDREDITEPAICALRHLTSRHQEAEMAQNAVRLHYGLPVVVKLLHPPSHWPLIKATVGLIRNLALCPANHAPLREQGAIPRLVQLLVRAHQDTQRRTSMGGTQQQFVEGVRMEEIVEGCTGALHILARDVHNRIVIRGLNTIPLFVQLLYSPIENIQRVAAGVLCELAQDKEAAEAIEAEGATAPLTELLHSRNEGVATYAAAVLFRMSEDKPQDYKKRLSVELTSSLFRTEPMAWNETADLGLDIGAQGEPLGYRQDDPSYRSFHSGGYGQDALGMDPMMEHEMGGHHPGADYPVDGLPDLGHAQDLMDGLPPGDSNQLAWFDTDL

Variants of: B1
Assay: GST pull-down, immunoblot anti-β-catenin, quantified; purified proteins; mean ± SD of three experiments; parent: 1; read off a plot

First: chain 1 T57E
Second: chain 1 T57A
The ratio to parent of the first is lower: ~0.39 for the first, ~1.1 for the second.
